# Fewer inactive variants are shown than the library holds.
# Tests used:
# biotinyl-Val-oxazolone = experiment: self-aminoacylation, catalytic enhancement (BVO) (fold over background); higher = more active; k-Seq, kA / k0A0; sequences stand for … in GGGAAUGGAUCCACAUCUACGAAUUC…UUCACUGCAGACUUGACGAAGCUG
# Procedure, shortened: (§1)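 Catalytic enhancement equals the median kA over the uncatalyzed rate, the latter read from the low-activity peak of a bimodal Gaussian fit. Values of kA came from fitting each sequence's fraction reacted to a pseudo-first-order model, with 1000 bootstraps. Reacted RNA was captured with streptavidin and quantified by triplicate qPCR and Illumina sequencing after 90 minutes at room temperature with 2–1250 μM biotinyl-aminoacyl-oxazolone and 0.43 μM mutagenized RNA pools bearing a 21-nt variable region.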
# biotinyl-Trp-oxazolone = experiment: self-aminoacylation, catalytic enhancement (BWO) (fold over background); higher = more active; k-Seq, kA / k0A0; sequences stand for … in GGGAAUGGAUCCACAUCUACGAAUUC…UUCACUGCAGACUUGACGAAGCUG
# Procedure, shortened: as §1
# biotinyl-Phe-oxazolone = experiment: self-aminoacylation, catalytic enhancement (BFO) (fold over background); higher = more active; k-Seq, kA / k0A0; sequences stand for … in GGGAAUGGAUCCACAUCUACGAAUUC…UUCACUGCAGACUUGACGAAGCUG
# Procedure, shortened: as §1
# biotinyl-Met-oxazolone = experiment: self-aminoacylation, catalytic enhancement (BMO) (fold over background); higher = more active; k-Seq, kA / k0A0; sequences stand for … in GGGAAUGGAUCCACAUCUACGAAUUC…UUCACUGCAGACUUGACGAAGCUG
# Procedure, shortened: as §1
# biotinyl-Leu-oxazolone = experiment: self-aminoacylation, catalytic enhancement (BLO) (fold over background); higher = more active; k-Seq, kA / k0A0; sequences stand for … in GGGAAUGGAUCCACAUCUACGAAUUC…UUCACUGCAGACUUGACGAAGCUG
# Procedure, shortened: as §1
# biotinyl-Ile-oxazolone = experiment: self-aminoacylation, catalytic enhancement (BIO) (fold over background); higher = more active; k-Seq, kA / k0A0; sequences stand for … in GGGAAUGGAUCCACAUCUACGAAUUC…UUCACUGCAGACUUGACGAAGCUG
# Procedure, shortened: as §1
Sequence,self-aminoacylation (biotinyl-Val-oxazolone),self-aminoacylation (biotinyl-Trp-oxazolone),self-aminoacylation (biotinyl-Phe-oxazolone),self-aminoacylation (biotinyl-Met-oxazolone),self-aminoacylation (biotinyl-Leu-oxazolone),self-aminoacylation (biotinyl-Ile-oxazolone)
AUUACCCUGGUCAGCGGGUGA [Fam2.1 aminoacylation ribozyme variant],6.36,10.1,68.2,9.2,10.1,5.3
CCACAAUUCAAGCAUUCGGUC [Fam1B.1 aminoacylation ribozyme variant],1.85,1.36,1.36,1.68,1.94,1.96
AUACUUCAAAUAAUCGGUCUG [Fam1A.1 aminoacylation ribozyme variant],0.877,4.17,5.26,0.965,0.998,0.992
AUUACCCUGGUGAUCGAGUGG [Fam2.1 aminoacylation ribozyme variant],1.26,1.82,3.23,1.79,1.63,1.11
UUUGACCUAGGUCAUCGGGUG [Fam2.2 aminoacylation ribozyme variant],4.23,6.51,26.6,4.5,5.93,4.3
AGUAGCCUGGUCAUCGAGUGA [Fam2.1 aminoacylation ribozyme variant],4.85,8.44,37.9,7.32,7.91,4.84
AUUCACCUCGGUCAUCUGGUG [Fam2.2 aminoacylation ribozyme variant],2.16,3.2,29.2,3.29,4.16,2.17
AUUCAACUAGGUCAUCUGGUG [Fam2.2 aminoacylation ribozyme variant],1.85,2.54,17.7,2.55,3.55,1.9
ACACACUUCAAGCAAUCGGCC [Fam1B.1 aminoacylation ribozyme variant],2.57,6.35,4,2.21,2.54,2.7
AUUGCCCUGGGCAUCGAGUGA [Fam2.1 aminoacylation ribozyme variant],3.27,7.29,44.5,6.92,8.04,2.96
CCACGCUUCAAGAAAUCGGUC [Fam1B.1 aminoacylation ribozyme variant],0.945,8.12,10.3,0.772,1.19,0.895
CUAUAUCAAACAAUCGGUCUG [Fam1A.1 aminoacylation ribozyme variant],0.634,1.01,1.62,0.561,0.638,0.752
AUUACCCUGCUCACCGAGUGA [Fam2.1 aminoacylation ribozyme variant],3.35,6.29,39,5.34,6.12,2.76
AUUCACCUAGGUCCUCGGGUG [Fam2.2 aminoacylation ribozyme variant],3.13,4.22,30.2,4.59,5.91,3.08
CUACUCCAAACAAACGGUCUG [Fam1A.1 aminoacylation ribozyme variant],0.981,0.918,1.09,0.531,0.71,0.816
ACGAUUGCUAAUAGUCGCAAG [Fam3.1 aminoacylation ribozyme variant],1.43,0.96,1.54,1.23,1.57,1.35
AUUCCCCUGGUCAUCGCGUGA [Fam2.1 aminoacylation ribozyme variant],15,26.8,213,22.1,28.2,12.2
AUUCACCUAGGUGAUCGGGUU [Fam2.2 aminoacylation ribozyme variant],1.88,1.06,9.06,1.89,2.59,1.85
CUACUCCAAAGAAUCGGUCUG [Fam1A.1 aminoacylation ribozyme variant],0.764,0.807,0.807,0.731,1.03,0.927
CCACUCUUCAAGAAAUCGGUC [Fam1B.1 aminoacylation ribozyme variant],0.871,4.87,5.4,0.91,0.903,0.932
GUACUUCAAACAAGCGGUCUG [Fam1A.1 aminoacylation ribozyme variant],1.49,2.06,5.04,1.42,1.63,1.78
AUUACCCUGGUCAUCAAGGGA [Fam2.1 aminoacylation ribozyme variant],1.13,1.2,1.11,0.807,0.752,0.87
CCACACUACAAGGAAUCGGUC [Fam1B.1 aminoacylation ribozyme variant],1.03,0.681,0.823,0.84,0.947,1.01
AUUCACGUAGGUCACCGGGUG [Fam2.2 aminoacylation ribozyme variant],5.08,7.15,62.5,7.45,8.29,5.08
CCACGCUUCAGGCAAUCGGUC [Fam1B.1 aminoacylation ribozyme variant],1.77,1.35,1.41,1.35,1.39,1.22
AAGUCUGCUAAUAGUCGCAGG [Fam3.1 aminoacylation ribozyme variant],1.44,1.97,5.31,2.07,2.25,1.7

Sequence,self-aminoacylation (biotinyl-Val-oxazolone),self-aminoacylation (biotinyl-Trp-oxazolone),self-aminoacylation (biotinyl-Phe-oxazolone),self-aminoacylation (biotinyl-Met-oxazolone),self-aminoacylation (biotinyl-Leu-oxazolone),self-aminoacylation (biotinyl-Ile-oxazolone)
CUACUUCAAAAAAUCGGUCUU [Fam1A.1 aminoacylation ribozyme variant],0.807,4.11,5.8,0.966,1.05,1.02
AAGUUUGCUAAAGGUCGCAAG [Fam3.1 aminoacylation ribozyme variant],0.625,0.835,1.14,0.931,0.716,0.687
UUUAACCUGGUCAUCGAGUGA [Fam2.1 aminoacylation ribozyme variant],4.17,8.93,11.2,5.83,5.8,4.01
CAGUUUGCUAACAGUCGCAAG [Fam3.1 aminoacylation ribozyme variant],1.16,1.32,2,1.83,1.6,1.31
AUCACCCUGGUCACCGAGUGA [Fam2.1 aminoacylation ribozyme variant],5.92,13.2,96.6,17.5,15.4,6.34
AUCCACCUAGGUUAUCGGGUG [Fam2.2 aminoacylation ribozyme variant],4.45,5.62,32.1,4.13,4.84,3.44
CCACACUUCCCGCAAUCGGUC [Fam1B.1 aminoacylation ribozyme variant],1.78,1.37,0.932,1.5,1.73,1.42
AUUACCCUGAUCAUCGAGAGA [Fam2.1 aminoacylation ribozyme variant],0.913,0.629,0.905,0.577,0.765,1.02
CUACCUCUAACAAUCGGUCUG [Fam1A.1 aminoacylation ribozyme variant],0.739,0.565,0.97,0.915,0.919,0.8
AUUACGCUUGUCAUCGAGUGA [Fam2.1 aminoacylation ribozyme variant],2.36,4.03,4.09,3.16,3.93,2.6
AUUUCCCUGGUCCUCGAGUGA [Fam2.1 aminoacylation ribozyme variant],1.93,3.91,23.5,3.79,3.67,2.08
AUUACCCUGGUCAUCGCAUGA [Fam2.1 aminoacylation ribozyme variant],1.75,3.77,13.8,3.2,3.5,2.01
AGUACCGUGGUCAUCGAGUGA [Fam2.1 aminoacylation ribozyme variant],3.39,5.99,24.1,5.19,5.87,3.61
AAAUUUGCUAAUAGGCGCAAG [Fam3.1 aminoacylation ribozyme variant],1.04,1.25,1.29,1.28,1.51,1.41
AUUGACCUAGGUCAUCCGGUG [Fam2.2 aminoacylation ribozyme variant],3.31,5.12,28.3,4.88,4.69,3.31
CUACUACAAACAAUCGGUCUC [Fam1A.1 aminoacylation ribozyme variant],0.59,0.673,1.05,0.53,0.418,0.647
AUUACCAUGGUCAUCGCGUGA [Fam2.1 aminoacylation ribozyme variant],12.1,26.7,189,24.6,25.2,10.3
AUUCACCUAAGUCAUCGGUUG [Fam2.2 aminoacylation ribozyme variant],1.24,0.969,0.716,1.14,1.23,1.06
AUUAGCCUGGUCAUCAAGUGA [Fam2.1 aminoacylation ribozyme variant],2.45,4.94,17.9,4.31,4.41,2.74
AUUACCCUGAUCAUCGAGGGA [Fam2.1 aminoacylation ribozyme variant],1.21,2.33,0.999,1.02,1.87,1.09
CUACGUCAAACAAUCGUUCUG [Fam1A.1 aminoacylation ribozyme variant],0.813,0.856,0.508,0.854,0.822,0.789
AUGACCCUGGUCAUCGAGUGU [Fam2.1 aminoacylation ribozyme variant],23.7,64.9,692,89.5,85.3,20.6
CCGAACUUCAAGCAAUCGGUC [Fam1B.1 aminoacylation ribozyme variant],1.54,20.6,34.4,1.43,1.68,1.26
AUACUUCAAACAAUCAGUCUG [Fam1A.1 aminoacylation ribozyme variant],1.02,4.24,9.06,0.823,0.979,0.975
CUACUCCAAACAAUCGAUCUG [Fam1A.1 aminoacylation ribozyme variant],0.661,0.384,0.831,0.48,0.533,0.704

# Source: the supplement of paper PMC9233669
